The subject of one data set is mannanase. The experiment in a line: Effect of metal ions and chemicals on mannanase activity. It counts as biochemical, Cellulosimicrobium sp. HY-13. Particulars: for increase of catalytic activity of the mannanase / effect on the enzyme activity: pH 6.0, 50° C.
Data set [1] can be described thus: Analysis of degradation product (HPLC, LC-MS/MS). It counts as biochemical. Particulars: substrate Ivory nut mannan; LC area %. The procedure: […] HPLC (high performance liquid chromatography) was performed by using Finnigan Surveyor™ Modular HPLC systems (Thermo Electron Co.) equipped with Asahipak NH2P-50 2D column (5 μm, 2.0×150 mm, Shodex) ran by Xcalibur software (version 1.3 SP2, Thermo Electron Co.). Elution buffer A (0.05% pomalus acid/sterilized water) and elution buffer B (acetonitrile and methanol (7:3) containing 0.05% pomalus acid) were used as moving phases. LC-MS/MS (liquid chromatography/tandem mass spectrometry) was performed by using Finnigan LCQ Advantage MAX ion trap mass spectrometer (Thermo Electron Co.).

Data set [2] can be described thus: Analysis of degradation product (HPLC, LC-MS/MS). It counts as biochemical. Particulars: 1 μg recombinant mannanase, pH 6.0, 30° C., 12 hours, LC area %. The procedure: Mannooligomer (M2˜M5, 1 mg/100 μl each) and locust bean gum (1.4 mg/100 μl) were reacted in 50 mM sodium phosphate buffer (pH 6.0) containing 1 μg of the recombinant mannanase at 30° C. for 12 hours, followed by investigation of the hydrolysate. HPLC (high performance liquid chromatography) was performed by using Finnigan Surveyor™ Modular HPLC systems (Thermo Electron Co.) equipped with Asahipak NH2P-50 2D column (5 μm, 2.0×150 mm, Shodex) ran by Xcalibur software (version 1.3 SP2, Thermo Electron Co.). Elution buffer A (0.05% pomalus acid/sterilized water) and elution buffer B (acetonitrile and methanol (7:3) containing 0.05% pomalus acid) were used as moving phases. LC-MS/MS (liquid chromatography/tandem mass spectrometry) was performed by using Finnigan LCQ Advantage MAX ion trap mass spectrometer (Thermo Electron Co.).

Data set [3] can be described thus: Specific activity of mannanase (DNS reducing sugar assay). It counts as biochemical. The note with it: pH 6.0, 50° C., 15 minutes. The procedure:
To compare the mannanase activity to different matrixes, locust bean gum, ivory nut mannan and guar gum were used as matrixes and the activity of the purified mannanase to those matrixes were investigated.
The activity of β-1,4-mannanase was investigated by measuring the reduced amount of glucose isolated from locust bean gum using 3,5-dinitrosalicylic acid (DNS). At this time, D-mannose was used as a standard material. 0.5 Ml of a standard mixture composed of 0.5% locust bean gum was mixed with 0.05 Ml of an enzyme aqueous solution, followed by inducing biodegradation reaction in 50 mM sodium phosphate buffer (pH 6.0) at 50° C. for 15 minutes. The activity of the recombinated mannanase (1 IU) to the mannan substrate was defined as the amount of the protein necessary for the secretion of 1 μmol reducing sugar under the standard analysis condition. Chromogenic PNP-sugar derivative was used to measure another degrading activity of the said recombinated enzyme. The enzyme activity of the recombinated mannanase to the chromogenic substrate was measured under the same conditions as set for the analysis of β-1,4-mannanase activity. The activity of the recombinated mannanase (1 IU) to the PNP-sugar derivative was defined as the amount of the protein necessary for the production of 1 μmol PNP under the standard analysis condition.

Where [4] appears, read: metal ions 1 mM, 50 mM sodium phosphate buffer (pH 6.0), 50° C., 10 minutes, None = 100.0.
Where [5] appears, read: metal ions 1 mM, chemicals 5 mM, 10 minutes.
Where [6] appears, read: chemicals 5 mM, 50 mM sodium phosphate buffer (pH 6.0), 50° C., 10 minutes, None = 100.0.
Setting [7] is: detergent 0.5%, 50 mM sodium phosphate buffer (pH 6.0), 50° C., 10 minutes, None = 100.0.

Marks after values point to notes of the source that are not given here.

This note sets out measurements from patent US9307782B2, “Mannanase produced from Cellulosimicrobium sp. strain HY-13” (Korea Research Institute of Bioscience and Biotechnology, priority 2011, dated 2016).

With `[Ba+2].[Cl-].[Cl-]` [BaCl2], the “Relative activity (%)” value with mannanase (setting [4]) is reported as 118.5%. The “increase of catalytic activity of the mannanase” value in the data set with mannanase (metal ions 1 mM, 10 minutes) is reported as “approximately 1.2 fold”.
The corresponding values for `[Ca+2].[Cl-].[Cl-]` [CaCl2] are 146.9% and “at least 1.4 fold”.
On to `[Cl-].[Cl-].[Co+2]` [CoCl2], for which the “Relative activity (%)” value in the data set with mannanase (pH 6) is 111.9%.
On to `[Cl][Cu][Cl]` [CuCl2], for which, in the data set on mannanase (setting [4]), the “Relative activity (%)” value is 16.7%.
For the molecule `O=C(O)CN(CCN(CC(=O)O)CC(=O)O)CC(=O)O` [EDTA], the “Relative activity (%)” value with mannanase (pH 6) came out at 19.0%.
`O=S(=O)([O-])[O-].[Fe+2]` [FeSO4]: the “Relative activity (%)” value in the data set on mannanase (setting [4]) was 42.2%.
For the molecule `[Cl][Hg][Cl]` [HgCl2], the “effect on the enzyme activity” value in the data set on mannanase (setting [5]) is listed as “inactivated”. The “Relative activity (%)” value in the data set with mannanase (setting [4]) came out at 0%.
The like results for `O=S(=O)([O-])[O-].[Mg+2]` [MgSO4] were, in that order, “no effect” and 99.9%.
Turning to `[Cl][Mn][Cl]` [MnCl2], the “Relative activity (%)” value in the data set with mannanase (setting [4]) was determined as 125.2%. Also, the “increase of catalytic activity of the mannanase” value in the data set with mannanase (metal ions 1 mM, 10 minutes) was “approximately 1.2 fold”.
Consider `O=C1CCC(=O)N1Br` [N-Bromosuccinimide], for which, in the data set with mannanase (setting [6]), the “Relative activity (%)” value turned out to be 0%. For the same molecule, the “effect on the enzyme activity” value in the data set on mannanase (setting [5]) was “inactivated”.
As for `CCN1C(=O)C=CC1=O` [N-Ethylmaleimide], the “Relative activity (%)” value in the data set with mannanase (setting [6]) is 121.4%.
Consider `O=S(=O)([O-])[O-].[Ni+2]` [NiSO4], for which the “Relative activity (%)” value with mannanase (setting [4]) is listed as 67.1%.
Regarding `NC(=O)CI` [Odoacetamide], in the data set with mannanase (setting [6]), the “Relative activity (%)” value is given as 113.3%.
For `[Cl][Sn][Cl]` [SnCl2], the “effect on the enzyme activity” value in the data set on mannanase (setting [5]) is “no effect”. Further, the “Relative activity (%)” value with mannanase (setting [4]) was 103.7%.
As for `CCCCCCCC/C=C\CCCCCCCC(=O)OCCOCC(OCCO)C1OCC(OCCO)C1OCCO` (stereo not drawn) [Tween 80], the “Relative activity (%)” value with mannanase (setting [7]) is recorded as 103.5%.
As for `O=S(=O)([O-])[O-].[Zn+2]` [ZnSO4], the “Relative activity (%)” value with mannanase (setting [4]) is 47.4%.
With Triton X-100, the “Relative activity (%)” value with mannanase (setting [7]) was determined as 98.9%.

B1: rManH: Recombinant GH5 β-1,4-mannanase of Cellulosimicrobium sp. HY-13 produced in E. coli; SEQ. ID. NO: 1; approximately 44 kDa (protein)
chain: MRRLFAIVLGAVLALLAVPALAQGASVASDGFSVQDGRIYDANGNRFVPVGVNHAHAWYPSQTQSFADIRAAGANTVRVVLSGGRYGTSSAADVSAVVERCKQNQLVCILENHDTTGYGEDGSARSLASAAQYWTSIASVLRGQERYVMINIGNEPFGNSGFQSWTTDTIAAIRTLRAAGLDHTLVVDAPNWGQDWSFTMRDNAPTVAAADGNVVFSVHMYGVFDTGAEVRAYLDSFTSRGLPIMVGEFGDNHSDGNPDEATIMSYTRSQGIGMLGWSWSGNGGGVEYLDMVNGFSASSLTPWGQRFVHGADGLRARNAPAASVYGGDGGDGDGGAGTAPNGYPYCASASSDPDGDGWGWESSASCVVRGSSADTGSGGGSGSGSTAPNGYPYCASASSDPDGDGWGWESSASCVVRGSSADR
modifications: cellulosimicrobium
notes: Recombinant GH5 β-1,4-mannanase of Cellulosimicrobium sp; HY-13 produced in E. coli; ID; NO: 1; approximately 44 kDa
Regarding B1, the “Composition (%) of products formed by hydrolysis reaction: M1” value in data set [1] is listed as 3.3%; in data set [2] (substrate Locust bean gum), 1.1%; in data set [2] (substrate M3), 3.5%; in data set [2] (substrate M4), 3.9%; in data set [2] (substrate M5), 4.1%. In addition, the “Composition (%) of products formed by hydrolysis reaction: M2” value came to 17.5% in data set [1]; 6.4% in data set [2] (substrate Locust bean gum); 100.0% in data set [2] (substrate M2); 60.1% in data set [2] (substrate M3); 55.5% in data set [2] (substrate M4); 46.9% in data set [2] (substrate M5). Further, the “Composition (%) of products formed by hydrolysis reaction: M3” value amounted to 13.9% in data set [1]; 1.5% in data set [2] (substrate Locust bean gum); 31.6% in data set [2] (substrate M3); 28.8% in data set [2] (substrate M4); 21.8% in data set [2] (substrate M5). The “Composition (%) of products formed by hydrolysis reaction: M4” value was found to be 25.2% in data set [1]; 7.4% in data set [2] (substrate Locust bean gum); 4.0% in data set [2] (substrate M3); 9.9% in data set [2] (substrate M4); 16.6% in data set [2] (substrate M5). For the same molecule, the “Composition (%) of products formed by hydrolysis reaction: M5” value in data set [1] was 19.7%; in data set [2] (substrate Locust bean gum), 44.2%; in data set [2] (substrate M3), 0.8%; in data set [2] (substrate M4), 1.9%; in data set [2] (substrate M5) it was 7.9%. The “Composition (%) of products formed by hydrolysis reaction: M6” value in data set [1] is given as 12.9%; in data set [2] (substrate Locust bean gum) it was 16.1%; in data set [2] (substrate M5), 2.8%. The “Composition (%) of products formed by hydrolysis reaction: M7” value in data set [1] was determined as 7.5%; in data set [2] (substrate Locust bean gum), 21.4%; in data set [2] (substrate M5), 0.9%. Also, the results for the “Composition (%) of products formed by hydrolysis reaction: M8” value in data set [1] and in data set [2] (substrate Locust bean gum) were 2.9% and 1.9%, respectively. The Specific activity in data set [3] (substrate Guar gum) is recorded as 967 ± 18 IU mg^−1; in data set [3] (substrate Insoluble ivory nut mannan), 14,711 ± 183 IU mg^−1; in data set [3] (substrate Locust bean gum) it was 8,498 ± 105 IU mg^−1; in data set [3] (toward insoluble ivory nut mannan), 14,711^c IU/mg; in data set [3] (toward locust bean gum), 8,498^d IU/mg.
